Measurements reported in publication PMC2915839 (Journal of the American Chemical Society, 2010).
Where “and” joins values, the source holds several entries; their conditions need not be identical. Equal entries are not always repeated.

Legend:
[1] = biological target: T1, NMR invisible oligomeric species of Aβ (1–40) (Homo sapiens, UniProt P05067); assay: 15N-R2 and 1HN-R2 transverse relaxation; format: binding
[2] = biological target: T1, NMR invisible oligomeric species of Aβ (1–40); format: binding
[3] = biological target: ^15N-labeled Aβ(1–40) (Homo sapiens, UniProt P05067); assay: Intermolecular paramagnetic relaxation enhancement; format: binding
[4] = Dynamic light scattering / transmission EM of equilibrated samples; format: physicochemical; conditions: equilibrated 150 and 300 µM samples
[5] = 150 µM total; 50 mM HEPES, pH 6.8, 10°C

T1 sequence (P05067 672-711 limits assumed): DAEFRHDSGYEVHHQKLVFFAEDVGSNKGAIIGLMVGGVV
^15N-labeled Aβ(1–40), sequence (P05067 672-711 limits assumed): as above

Aβ(1–40): amyloid β (Aβ) peptide (1–40), uniformly 15N-labeled, prepared from NaOH treated stocks to remove fibril seeds
konapp (apparent first order rate constant, monomer to oligomer) ([1]; 300 µM total, pH 6.8, 10°C): 3.1 s^−1 and ~ 3 s^−1 | 1HN-R1 of monomer ([1]; Aβ(1–40) monomer, 10°C): 1 s⁻¹ | timescale of monomer-oligomer dynamic equilibrium [2]: 10 to 15 ms | fraction of oligomers ([2]; 60 µM): negligible | effect of off-resonance saturation pulse on amide signal intensity ([2]; 60 µM, until pulse approaches resonances of the protein): no effect on the signal intensity of the amide resonances | effect of CW pulse far off-resonance on amide resonances ([2]; 300 µM, RF 180 and 350 Hz): uniformly attenuated | fraction of peptide within dark oligomeric state exchanging with free monomer ([2]; abstract, concentration not specified): ~ 3% | peptides within the oligomer undergoing exchange with free monomer, 1 in about N ([2]; from fex): about 30 | mobility of N-terminal 9 residues upon association with oligomer ([2]; from regional specificity of ΔR2): remain highly mobile | population of lower order, transient, self-associated states ([3]; if present, or exchange is slow on the PRE time scale (< ca. 1 ms)): 1–2% | presence of aggregates by dynamic light scattering [4]: presence of large polydisperse aggregates was confirmed | morphology by transmission EM ([4]; negatively stained, >3 weeks): elongated morphologically disordered non-fibrillar aggregates with possibly some small needle-like fibrils present | monomer concentration at pseudo-equilibrium [5]: 105 µM

F20C: single-cysteine variant Aβ(1–40), F20C mutation in the center of the peptide, conjugated to a nitroxide spin-label or a diamagnetic analogue
intermolecular PREs, in words ([3]; 100 µM U-[15N]-Aβ(1–40) + 170 µM spin-labeled F20C variant): essentially no intermolecular PREs were observed
